Results on two molecules are retold here after patent publication CN112111006A.

Assay [1] addresses 牛结节性皮肤病病毒(LSDV) P32蛋白,原核表达,去掉C端跨膜区 (Lumpy skin disease virus (LSDV)). Description: ELISA of the ascites-purified monoclonal antibody on P32. (An ELISA detects its analyte on a solid surface through an enzyme-linked reagent.)
For assay [2] the target is unchanged.

B1: P32蛋白单克隆抗体,细胞株编号701 (antibody, V domains shown)
VH: QSAPGLVQASQCLSITCTVSGFSLTTYAVHWVRQPPGQGLEWQGVIWSGGRTDYNAAFMCRLSISKDNSNSQDFFKMNSLQADDTAIYYCARNYYGGSLDYWGQGTTLTVSS
VL: DIVLTQTPASLAVSLGQRATISSRASNSVSTSRYSYMHWNQQKPGQPPRLLIYLVSNLESGVPARFSGSGSGTDFTLNIHPVEEEDAATYYCQHIRELTFGGGTKLEIK
With B1, the ELISA效价 (titer (1:dilution)) in assay [1] was greater than 128000. Further, in assay [2], the 检测限 turned out to be 10 ng/mL.

B2: P32蛋白单克隆抗体,细胞株编号901 (antibody, V domains shown)
VH: QVQLNQSGPGLVQPSQSLSITCTLSGFSLTTYAVHWVRQSPGKGLEWLGVIWIGGRTDYNAAFISRLSISKDNSKSQVFFEMNSLQPNDTAIYYCARNYYGGSFDYWGQGTTLTVS
VL: DIVLTQSPASLAVSLGQRATISYRDSKSVSTSGYSYMHWNQQKPGQPPRLLIYLVSNLESGVPARFSGSGSGTDFTLNIHPVEEEDAATYYCQHIRELTFGGGTKLEIK
B2 came in with an ELISA效价 (titer (1:dilution)) in assay [1] greater than 128000. This molecule also came in with a 检测限 in assay [2] of 10 ng/mL.
